± gives the standard error. This sample holds only a part of the variants without activity.
B1: glmS ribozyme (parent)
chain: AUAAAAGCGCCAGAACUACAGAAAUGUAGUUGACGAGGAGGAGGUUUAUCGAAUUUUCGGCGGAUGCCUCCAAA

How the values were obtained:
Settings in all cases: with glucosamine-6-phosphate
glucosamine-6-phosphate [1] = variants of: B1; test: self-cleavage kobs at 40 uM GlcN6P; higher = faster cleavage; RNA array
Method in brief: (§1)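 In situ transcription by E. coli RNA polymerase produced barcoded ribozyme variants on sequenced MiSeq chips, and a hybridised Cy3 probe tracked them at 37 °C. Glucosamine-6-phosphate was flowed in at 40 μM to 10 mM in HEPES/KCl/Mg(OAc)2 buffer. kcat and KM were taken from weighted Michaelis–Menten fits of kobs values from exponential decay fits.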

glucosamine-6-phosphate [2] = variants of: B1; test: self-cleavage kobs at 2500 uM GlcN6P; higher = faster cleavage; RNA array
Method in brief: as §1

glucosamine-6-phosphate [3] = variants of: B1; test: self-cleavage kobs at 10000 uM GlcN6P; higher = faster cleavage; RNA array
Method in brief: as §1

glucosamine-6-phosphate [4] = variants of: B1; test: self-cleavage kobs at 160 uM GlcN6P; higher = faster cleavage; RNA array
Method in brief: as §1

glucosamine-6-phosphate [5] = variants of: B1; test: self-cleavage kobs at 640 uM GlcN6P; higher = faster cleavage; RNA array
Method in brief: as §1

AUAAAAGCGCCAGAACUACAGAAAUGUAGUUGACGAGGAGGAGGUUUAUCGAAUUUUCGCCGGAUGACUCCAAA
self-cleavage kobs at 40 uM GlcN6P (glucosamine-6-phosphate [1]): < 1e-05 s⁻¹
self-cleavage kobs at 2500 uM GlcN6P (glucosamine-6-phosphate [2]): < 1e-05 s⁻¹

AUAAAAGCGCCAGAACUACAGAAAUGUAGUUCACGAGGAAGAGGUUUAUCGACUUUUCGGCGGAUGCCUCCAAA
self-cleavage kobs at 40 uM GlcN6P (glucosamine-6-phosphate [1]): < 1e-05 s⁻¹
self-cleavage kobs at 2500 uM GlcN6P (glucosamine-6-phosphate [2]): < 1e-05 s⁻¹
self-cleavage kobs at 10000 uM GlcN6P (glucosamine-6-phosphate [3]): < 1e-05 s⁻¹

AUAAAAGCGCCAGAACUACAGAAAUGUAGUUGAAGAGGAGGAGGCUUAUCGAAUUUUCGGCGGAUGCCUCCAAA
self-cleavage kobs at 40 uM GlcN6P (glucosamine-6-phosphate [1]): < 1e-05 s⁻¹
self-cleavage kobs at 160 uM GlcN6P (glucosamine-6-phosphate [4]): < 1e-05 s⁻¹
self-cleavage kobs at 640 uM GlcN6P (glucosamine-6-phosphate [5]): < 1e-05 s⁻¹
self-cleavage kobs at 2500 uM GlcN6P (glucosamine-6-phosphate [2]): < 1e-05 s⁻¹
self-cleavage kobs at 10000 uM GlcN6P (glucosamine-6-phosphate [3]): < 1e-05 s⁻¹

AUAAAAGCGCCAGAACUACAGAAAUGUAGUUGACCAGGAGGAGGUUUAUCGAAUUUUCGGGGGAUGCGUCCAAA
self-cleavage kobs at 40 uM GlcN6P (glucosamine-6-phosphate [1]): 7.74e-05 ± 3e-05 s⁻¹

AUAAAAGCGCCAGCACUACAGAAAUGUAGUUGACGAGGAGGAGGUUUAUCGAAUUUCCGGCGGAUGCCCCCAAA
self-cleavage kobs at 40 uM GlcN6P (glucosamine-6-phosphate [1]): < 1e-05 s⁻¹

AUAAAACCGCCAGAACUACAGAAAUGUAUUUUACGAGGAGGAGGUUUAUCGAAUUUUCGGCGGCUGCCUCCAAA
self-cleavage kobs at 40 uM GlcN6P (glucosamine-6-phosphate [1]): < 1e-05 s⁻¹

AUAAAAGCGCCAGAACUACAGAAAUGUAGGUGACGAGGAGGAGGUUUAUCGAAUUUUCGGCUGAUGCCUCCAAA
self-cleavage kobs at 40 uM GlcN6P (glucosamine-6-phosphate [1]): < 1e-05 s⁻¹
self-cleavage kobs at 640 uM GlcN6P (glucosamine-6-phosphate [5]): < 1e-05 s⁻¹
self-cleavage kobs at 10000 uM GlcN6P (glucosamine-6-phosphate [3]): < 1e-05 s⁻¹

AUAAAAGCGCCAGAACUACAGAAAUGUAGUUGACAAGGAGGAGGUUUAUCGAAUUUUCGGCGGAUGACUCCAAA
self-cleavage kobs at 40 uM GlcN6P (glucosamine-6-phosphate [1]): < 1e-05 s⁻¹
self-cleavage kobs at 160 uM GlcN6P (glucosamine-6-phosphate [4]): < 1e-05 s⁻¹
self-cleavage kobs at 640 uM GlcN6P (glucosamine-6-phosphate [5]): < 1e-05 s⁻¹
self-cleavage kobs at 2500 uM GlcN6P (glucosamine-6-phosphate [2]): < 1e-05 s⁻¹

AUAAAAGCGCCAGAACUACAGAAAUGUAGUUGACGAGGAGAACGUUUAUCGAAUUUUCGGCUGAUGCCUCCAAA
self-cleavage kobs at 40 uM GlcN6P (glucosamine-6-phosphate [1]): < 1e-05 s⁻¹
self-cleavage kobs at 10000 uM GlcN6P (glucosamine-6-phosphate [3]): < 1e-05 s⁻¹

AUAAAAGCGCCAGAACUACAGAAAUGUAGUUGGCGAGGAGUAGGUUUAUCGAAUUUUCGGCGGAUGCCUCCAAA
self-cleavage kobs at 40 uM GlcN6P (glucosamine-6-phosphate [1]): < 1e-05 s⁻¹
self-cleavage kobs at 160 uM GlcN6P (glucosamine-6-phosphate [4]): < 1e-05 s⁻¹
self-cleavage kobs at 640 uM GlcN6P (glucosamine-6-phosphate [5]): < 1e-05 s⁻¹
self-cleavage kobs at 10000 uM GlcN6P (glucosamine-6-phosphate [3]): < 1e-05 s⁻¹

AUAAAAGCGCCAGAACUACAGAAAUGUAGUAGACGAGGAGGGGGUUUAUCAAAUUUUCGGCGGAUGCCUGCAAA
self-cleavage kobs at 40 uM GlcN6P (glucosamine-6-phosphate [1]): < 1e-05 s⁻¹
self-cleavage kobs at 10000 uM GlcN6P (glucosamine-6-phosphate [3]): < 1e-05 s⁻¹

AUAAAAGCGCGAGAACUACAGAAAUGUAGUUGACGGGGACGAGGUUUAUCGAAUUUUCGGCGGAUGCCUCCAAA
self-cleavage kobs at 40 uM GlcN6P (glucosamine-6-phosphate [1]): < 1e-05 s⁻¹
self-cleavage kobs at 160 uM GlcN6P (glucosamine-6-phosphate [4]): < 1e-05 s⁻¹
self-cleavage kobs at 640 uM GlcN6P (glucosamine-6-phosphate [5]): < 1e-05 s⁻¹
self-cleavage kobs at 2500 uM GlcN6P (glucosamine-6-phosphate [2]): < 1e-05 s⁻¹
self-cleavage kobs at 10000 uM GlcN6P (glucosamine-6-phosphate [3]): < 1e-05 s⁻¹

AUAAAAGCGCCAGAACUACAGAAAUGUAGUUGACGAGGAAGAGGGUUAUCGAAUUUUCGGCGGAUGCCUCCAAA
self-cleavage kobs at 40 uM GlcN6P (glucosamine-6-phosphate [1]): 5.96e-05 ± 1.5e-05 s⁻¹
self-cleavage kobs at 640 uM GlcN6P (glucosamine-6-phosphate [5]): 0.000563 ± 0.00021 s⁻¹
self-cleavage kobs at 2500 uM GlcN6P (glucosamine-6-phosphate [2]): 0.000133 ± 4.2e-05 s⁻¹
self-cleavage kobs at 10000 uM GlcN6P (glucosamine-6-phosphate [3]): 0.000145 ± 3.5e-05 s⁻¹

AUAAAAGCGCCAGAACUACAGAAAUGUAGUUGACGAGUAGGAGGUUUAUCGGAUUUUCGGCGGAUGCCGCCAAA
self-cleavage kobs at 40 uM GlcN6P (glucosamine-6-phosphate [1]): 0.000147 ± 5.7e-05 s⁻¹
self-cleavage kobs at 10000 uM GlcN6P (glucosamine-6-phosphate [3]): 7.13e-05 ± 1.9e-05 s⁻¹

AUAAAAGCGCCAGAACUACAGAAAUGUAGUCGACGAGGGGGAGGUUUAUUGAAGUUUAGCCUGAUGCCUCCAAA
self-cleavage kobs at 40 uM GlcN6P (glucosamine-6-phosphate [1]): < 1e-05 s⁻¹
self-cleavage kobs at 10000 uM GlcN6P (glucosamine-6-phosphate [3]): < 1e-05 s⁻¹

AUAAAAGCGCCAGAACUACAGAAAUGUAGUUGACCAGGAGGAGGUUUAUCGAAUUUUCGGCGGAUGCAUCUAAA
self-cleavage kobs at 40 uM GlcN6P (glucosamine-6-phosphate [1]): < 1e-05 s⁻¹
self-cleavage kobs at 640 uM GlcN6P (glucosamine-6-phosphate [5]): < 1e-05 s⁻¹
self-cleavage kobs at 2500 uM GlcN6P (glucosamine-6-phosphate [2]): < 1e-05 s⁻¹
self-cleavage kobs at 10000 uM GlcN6P (glucosamine-6-phosphate [3]): < 1e-05 s⁻¹

AUAAAAGCGCCAGAACUACAGAAAUUUAGUUGACGAGGAGGAGGUUUAUGGAAUUUUCGGCGGAUGCCUCCAAA
self-cleavage kobs at 40 uM GlcN6P (glucosamine-6-phosphate [1]): 4.71e-05 ± 1.9e-05 s⁻¹
self-cleavage kobs at 10000 uM GlcN6P (glucosamine-6-phosphate [3]): 3.96e-05 ± 1.3e-05 s⁻¹

AUAAAAGCGCCAGAACUACAGAAAUGUAGUUGACGAGGAGGUGGUGUAUUGAAUUUUCGGCGGAUGCCUUCAAA
self-cleavage kobs at 40 uM GlcN6P (glucosamine-6-phosphate [1]): < 1e-05 s⁻¹
self-cleavage kobs at 10000 uM GlcN6P (glucosamine-6-phosphate [3]): < 1e-05 s⁻¹

AUAAAAGCGCCAGAACUACAGAAAUGUAGUUGCCGAGGAGGAAAUUUAUCGAAUUUUCGGCGGAUGCCUCCAAA
self-cleavage kobs at 40 uM GlcN6P (glucosamine-6-phosphate [1]): < 1e-05 s⁻¹
self-cleavage kobs at 10000 uM GlcN6P (glucosamine-6-phosphate [3]): < 1e-05 s⁻¹

AUAAAAGCGCCAGAACUACAGAAAUGUAGUUGACGAGGAGGAAGUUUAUCGAAUUUUCGGCGGAUGCCGCCAAA
self-cleavage kobs at 40 uM GlcN6P (glucosamine-6-phosphate [1]): < 1e-05 s⁻¹
self-cleavage kobs at 640 uM GlcN6P (glucosamine-6-phosphate [5]): < 1e-05 s⁻¹
self-cleavage kobs at 10000 uM GlcN6P (glucosamine-6-phosphate [3]): < 1e-05 s⁻¹

AUAAAAGCGCCAGAACUACAGAAAUGUAGUUGACGAGGAGGAAGUUUAUCGAAUUUACGGCGGAUGCCUCCAAA
self-cleavage kobs at 40 uM GlcN6P (glucosamine-6-phosphate [1]): < 1e-05 s⁻¹
self-cleavage kobs at 2500 uM GlcN6P (glucosamine-6-phosphate [2]): < 1e-05 s⁻¹
self-cleavage kobs at 10000 uM GlcN6P (glucosamine-6-phosphate [3]): < 1e-05 s⁻¹

AUAAAAGCGCCAGAACUACAGAAAUGUAGUUGACGAGGAAGAGGUUUAUCGAGUUUUCGGCGGAUGCCUCCAAA
self-cleavage kobs at 40 uM GlcN6P (glucosamine-6-phosphate [1]): 0.000243 ± 5.3e-05 s⁻¹
self-cleavage kobs at 640 uM GlcN6P (glucosamine-6-phosphate [5]): 0.0022 ± 0.0005 s⁻¹
self-cleavage kobs at 2500 uM GlcN6P (glucosamine-6-phosphate [2]): 0.00571 ± 0.0011 s⁻¹
self-cleavage kobs at 10000 uM GlcN6P (glucosamine-6-phosphate [3]): 0.0242 ± 0.0054 s⁻¹

AUAAAAGCGUCAGAACUACAGAAAUGUAGUUGACCAGGAGGAGGUUUAUCGUAUUUUCGGCGGAUGCCUCCAAA
self-cleavage kobs at 40 uM GlcN6P (glucosamine-6-phosphate [1]): < 1e-05 s⁻¹

AUAAAAGCGCCAGAACUACAGAAAUGUAGUUGACGAGGAGGAGGUGUAUCGAAUUAUCGGCGGAUGCCUCCAAA
self-cleavage kobs at 40 uM GlcN6P (glucosamine-6-phosphate [1]): 5.1e-05 ± 7.3e-06 s⁻¹
self-cleavage kobs at 640 uM GlcN6P (glucosamine-6-phosphate [5]): 0.000601 ± 0.00017 s⁻¹
self-cleavage kobs at 10000 uM GlcN6P (glucosamine-6-phosphate [3]): 0.00224 ± 0.00042 s⁻¹

AUAAAAGAGCCAGAACUACAGAAAUGUAUUUGACGAGGAGGAGGUUUAUCGAAUUUUCGUCGGAUGCCUCCAAA
self-cleavage kobs at 40 uM GlcN6P (glucosamine-6-phosphate [1]): < 1e-05 s⁻¹
self-cleavage kobs at 10000 uM GlcN6P (glucosamine-6-phosphate [3]): < 1e-05 s⁻¹

AUAAAAGCUCCAGAACUACAGAAAUGUAGUUGACGAGGAGGAGGUUUAUCGAAUUUUCGGCGGCUGCCUCCAAA
self-cleavage kobs at 40 uM GlcN6P (glucosamine-6-phosphate [1]): < 1e-05 s⁻¹
self-cleavage kobs at 160 uM GlcN6P (glucosamine-6-phosphate [4]): < 1e-05 s⁻¹
self-cleavage kobs at 640 uM GlcN6P (glucosamine-6-phosphate [5]): < 1e-05 s⁻¹
self-cleavage kobs at 10000 uM GlcN6P (glucosamine-6-phosphate [3]): < 1e-05 s⁻¹

AUAAAAGCGCCAAAACUACAGAAAUGUAGUUGACGAGGAGGAGGUUAAUCGAAUUUUCGUCGGAUGCCUCCAAA
self-cleavage kobs at 40 uM GlcN6P (glucosamine-6-phosphate [1]): < 1e-05 s⁻¹
self-cleavage kobs at 160 uM GlcN6P (glucosamine-6-phosphate [4]): < 1e-05 s⁻¹
self-cleavage kobs at 640 uM GlcN6P (glucosamine-6-phosphate [5]): < 1e-05 s⁻¹
self-cleavage kobs at 10000 uM GlcN6P (glucosamine-6-phosphate [3]): < 1e-05 s⁻¹

AUAAAAGCGCCAUAACUACAGAAAUGUAUUUGACGAGGAGGAGGUUUAUCGGAUUUUCGGCGGAUGGCUCCAAA
self-cleavage kobs at 40 uM GlcN6P (glucosamine-6-phosphate [1]): 6.42e-05 ± 1.9e-05 s⁻¹
self-cleavage kobs at 10000 uM GlcN6P (glucosamine-6-phosphate [3]): 8.86e-05 ± 1.8e-05 s⁻¹
